± gives the uncertainty stated by the source.
Assay: protein stability index of a GFP-peptide fusion (yeast GPS) (PSI 1-4); higher = more stable; sorted into four equal gates, so the index is relative within each strain
How it was run: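 Mid-log yeast cultures in leucine-free medium, carrying a pooled plasmid library, were sorted into four equal gates by their GFP/Cherry fluorescence ratio. Each plasmid expressed Cherry along with GFP fused upstream of a tiled 17-residue yeast protein peptide. Plasmids recovered from each gate were PCR-amplified and Illumina-sequenced, with reads assigned to strains by barcodes. The protein stability index was obtained by summing each gate's read frequency weighted by its gate number.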

| Sequence | protein stability index (doa10∆) | protein stability index (pdr5∆) | protein stability index (san1∆) | protein stability index (ubr1∆) |
| --- | --- | --- | --- | --- |
| LEESDVEDTLHVNKRKR [YOR098C/NUP1] | 3.26 ± 0.095 | 2.89 ± 0.095 | 3.12 ± 0.074 | 2.91 ± 0.062 |
| FDDRGDVKVIMATNKIE [RPT2] | 3.12 ± 0.12 | 3.18 ± 0.15 | 3.11 ± 0.083 | 3.27 ± 0.12 |
| ESTAGSASTSATGISGS [ECM29] | 3.31 ± 0.046 | 3.35 ± 0.053 | 3.12 ± 0.035 | 3.277 ± 0.032 |
| TKNIPITHRDLHYDKDY [SSN8] | 2.65 ± 0.043 | 2.87 ± 0.041 | 2.87 ± 0.03 | 2.83 ± 0.039 |
| GLKFASFIFQYYGLVID [PRP8] | 1.73 ± 0.2 | 1.27 ± 0.18 | 1.14 ± 0.27 | – |
| YSTIRQLVYKRGFGKIN [RPL7A] | 2.34 ± 0.064 | 1.97 ± 0.047 | 2.24 ± 0.11 | 1.98 ± 0.049 |
| EPKKPSFTFASSKTSQP [YOR098C/NUP1] | 2.93 ± 0.047 | 2.88 ± 0.037 | 2.9 ± 0.045 | 3.04 ± 0.031 |
| KEIDPSQTTQLAGMDVE [FAS2] | 3.14 ± 0.086 | 3.28 ± 0.11 | 3.15 ± 0.077 | 3.6 ± 0.069 |
| NDIPQTESPLKTVDSSI [SSN2] | 2.99 ± 0.071 | 3.01 ± 0.055 | 2.81 ± 0.061 | 3.03 ± 0.032 |
| DGSAIEDDDIRSRMLPT [SNF5] | 3.19 ± 0.086 | 3.03 ± 0.11 | 3.46 ± 0.12 | 3.34 ± 0.057 |
| IALILAIQMVDPASFYL [SMC3] | 1.16 ± 0.05 | 1.25 ± 0.055 | 2.1 ± 0.12 | 1.98 ± 0.063 |
| KCFDDIEPHIFDQLIEW [YCG1] | 3.2 ± 0.075 | 3.1 ± 0.081 | 3.31 ± 0.046 | 3.3 ± 0.046 |
| TYKYFEVILVDPQHKAI [RPL15A] | 2.32 ± 0.083 | 2.09 ± 0.074 | 2.5 ± 0.15 | 2.63 ± 0.12 |
| ESEEAETKDIRKQIQLL [SRB4] | 2.53 ± 0.081 | 2.94 ± 0.086 | 2.5 ± 0.062 | 2.71 ± 0.075 |
| VANSTKAAFIRVNGSEF [RPT3] | 1.92 ± 0.05 | 1.69 ± 0.044 | 1.66 ± 0.082 | 1.44 ± 0.034 |
| LLVPLALLTKRLYPHWD [CSN12] | 2.33 ± 0.066 | 2.01 ± 0.063 | 1.83 ± 0.092 | 1.5 ± 0.037 |
| TGTGLQDENIGLSMLAK [RPC31] | 3.12 ± 0.14 | – | 3.05 ± 0.13 | 3.4 ± 0.11 |
| STKLSRPFDSFGKLLQA [ITC1] | 2.42 ± 0.054 | 2.67 ± 0.066 | 2.35 ± 0.057 | 2.03 ± 0.063 |
| VAGLEDKFRKACSSSGR [SIR3] | 3.16 ± 0.14 | 2.93 ± 0.095 | 2.98 ± 0.18 | 2.9 ± 0.056 |
| KTKYILQRPTATDEESV [CSN12] | 3.18 ± 0.084 | 3.12 ± 0.081 | 2.95 ± 0.17 | 3.14 ± 0.2 |
| ITQIVEKDFCTSCLQNN [SRB8] | 2.35 ± 0.065 | 2.71 ± 0.077 | 2.68 ± 0.081 | 2.28 ± 0.049 |
| TYAAEIAHNISAKNRVV [RPL32] | 2.07 ± 0.043 | 2.27 ± 0.052 | 2.28 ± 0.068 | 2.13 ± 0.039 |
| FTDENTIVLSLNVKCTR [RPC40] | 3.44 ± 0.14 | 3.61 ± 0.091 | 2.96 ± 0.17 | 3.46 ± 0.091 |
| QQREAVRQLYKGKKYQP [RPL35A] | 3.63 ± 0.29 | 3.42 ± 0.14 | 2.94 ± 0.14 | 2.83 ± 0.091 |
| SNGVLNVDNQTSDLVKS [RPS17A] | 2.83 ± 0.12 | 2.88 ± 0.12 | 3.06 ± 0.18 | 2.86 ± 0.075 |
| LHVEQLSGGQKTVCAIA [SMC3] | 1.58 ± 0.15 | 2.08 ± 0.24 | 2.09 ± 0.15 | 1.82 ± 0.067 |

| Sequence | protein stability index (doa10∆) | protein stability index (pdr5∆) | protein stability index (san1∆) | protein stability index (ubr1∆) |
| --- | --- | --- | --- | --- |
| IYEKLKNYLKNYILNFK [CDC53] | 2.44 ± 0.063 | 1.32 ± 0.055 | 1.17 ± 0.13 | 1.14 ± 0.061 |
| SKPESSVLQLIVSEDHI [MED1] | 2.14 ± 0.16 | 2.17 ± 0.079 | 2.06 ± 0.14 | 2.7 ± 0.092 |
| QKSPKIRDPLTQTGLLQ [RPC82] | 1.81 ± 0.069 | 1.74 ± 0.041 | 2.02 ± 0.12 | 1.91 ± 0.046 |
| HPYEYEIDHQEYSPEIL [RRP6] | 2.75 ± 0.048 | 2.69 ± 0.042 | 2.83 ± 0.059 | 2.76 ± 0.035 |
| KCIKYSEKLITKYFEPT [ECM29] | 2.63 ± 0.12 | 3.03 ± 0.13 | 2.84 ± 0.05 | 2.68 ± 0.074 |
| QSSAIGALQESVEAYLV [HHT1] | 2.04 ± 0.077 | 2.81 ± 0.087 | 2.39 ± 0.11 | 2.15 ± 0.079 |
| KRIKPNTEITQKSSKEN [ECM29] | 2.81 ± 0.081 | 2.9 ± 0.074 | 2.98 ± 0.067 | 3.14 ± 0.056 |
| LISKPAKKNNFIEDLAP [UBP6] | 2.54 ± 0.084 | 2.73 ± 0.066 | 2.73 ± 0.069 | 2.7 ± 0.062 |
| SVFMPLIFIACNDEDKD [ECM29] | 2.99 ± 0.069 | 2.93 ± 0.058 | 2.09 ± 0.079 | 2.55 ± 0.04 |
| PRVSNQSNEDTFLPSYM [RRI2] | 3.07 ± 0.087 | 3.05 ± 0.09 | 3.14 ± 0.089 | 3.44 ± 0.067 |
| HQQRMSRTAADILLRLC [YCG1] | 2.48 ± 0.29 | 1.63 ± 0.2 | – | 2.66 ± 0.1 |
| KSGKRKPNIILDEDDTN [RPC31] | 3.29 ± 0.1 | 3.12 ± 0.092 | 3.35 ± 0.067 | 3.21 ± 0.046 |
| ARILARSERKRTKISRG [ITC1] | 2.56 ± 0.062 | 3.1 ± 0.074 | 3.07 ± 0.078 | 2.06 ± 0.046 |
| QVSINSNKILVYESEME [YIL149C/MLP2] | 2.3 ± 0.11 | 3 ± 0.16 | 1.71 ± 0.21 | 2.92 ± 0.16 |
| IAQGIDLVRDIDIDKLI [SRP72] | 1.65 ± 0.14 | 1.23 ± 0.12 | 1.58 ± 0.21 | 1.1 ± 0.16 |
| NLQREIDQAHVSEITKL [RPN14] | 2.61 ± 0.044 | 2.81 ± 0.058 | 2.75 ± 0.054 | 2.69 ± 0.05 |
| FEPASRLQGIKLLDNIQ [COR1] | 2.87 ± 0.064 | 2.98 ± 0.063 | 2.64 ± 0.06 | 2.54 ± 0.046 |
| KLNTLSEILSFDPVYTT [YML103C/NUP188] | 2.54 ± 0.061 | 2.77 ± 0.067 | 2.85 ± 0.073 | 2.77 ± 0.078 |
| KEKKELQMRLKESEISH [YIL149C/MLP2] | 2.6 ± 0.22 | 2.94 ± 0.17 | 3.04 ± 0.17 | 3.04 ± 0.15 |
| LKRMEILKSPHLSKSPA [SIR4] | 2.96 ± 0.06 | 2.93 ± 0.066 | 2.95 ± 0.058 | 2.78 ± 0.045 |
| EQVAEEAAAAEEGEEEE [RPS0B] | – | 3.33 ± 0.26 | – | – |
| KFFHNGMIYNKLFVSKE [FAS2] | 2.87 ± 0.089 | 2.54 ± 0.086 | 2.38 ± 0.12 | 2.58 ± 0.077 |
| PPSLKIIDGPKALILAP [PRP28] | 1.62 ± 0.055 | 1.77 ± 0.07 | 1.51 ± 0.12 | 1.63 ± 0.039 |
| AVVVGTGNIKHEDLVNS [COR1] | 3.05 ± 0.11 | 2.79 ± 0.12 | 2.93 ± 0.077 | 2.71 ± 0.11 |
| ELMRIISRNGDTSYKID [SMC1] | 2.83 ± 0.087 | 3.08 ± 0.063 | 2.99 ± 0.072 | 2.95 ± 0.058 |
| YSMISLQNCCIIDVGTH [ARP9] | 1.75 ± 0.085 | 1.41 ± 0.067 | 1.2 ± 0.15 | 1.33 ± 0.083 |

Reference: the supplement of paper PMC9732359
